# Assay results published in patent EP3653708A1, “ISOMALTULOSE PRODUCTION” (Evonik Operations GmbH, priority 2018, dated 2020).
# Legend:
# [1] = test system: OC[C@H]1O[C@@](CO)(O[C@H]2O[C@H](CO)[C@@H](O)[C@H](O)[C@H]2O)[C@@H](O)[C@@H]1O; assay: Michaelis-Menten kinetics of the conversion of sucrose into isomaltulose (HPLC, initial velocities); format: biochemical, Serratia plymuthica; details: 25 mM calcium acetate pH 5.5, 20 °C, 74.7 nM enzyme, 50-400 mM sucrose
# Experimental: (§1) The enzyme activity assay was carried out in 25 mM calcium acetate pH 5.5 in the presence of 1.16 M sucrose (Sigma-Aldrich, St. Louis, MO) for 16 h at 20 °C.
# (§2) The reaction mixture was composed as follows:
# (§3) The enzymatic product composition was determined on an Agilent 1200 HPLC instrument (Agilent Technologies, Santa Clara, United States of America) equipped with a Smart line refractive index detector 2300 (Knauer, Berlin, Germany). The sample solution was applied on an XBridge amide column (particle size: 5.0 µm, inner diameter: 4.6, length: 250 mm); (Waters, Milford, MA) at a flow rate of 2 mL/min using a running buffer of 57.8 % acetonitrile, 26.1 % acetone and 16.1 % H2O.
# The Michaelis constant (KM), the turnover number (kcat) and the catalytic efficiency (kcat/KM) were determined for isomaltulose. To this end, the enzymatic reaction was carried out as described above at sucrose concentrations of 50 mM, 100 mM, 150 mM, 200 mM, 300 mM and 400 mM and stopped after 10 min, 20 min, 30 min and 40 min by heating the sample at 95 °C for 10 min. To determine the initial velocities at these sucrose concentrations, the isomaltulose yield was analysed via HPLC and plotted against the […]. The slope of the subsequent linear regression corresponded to the initial velocity.
# Figure 1 illustrates analysis of the enzyme kinetics and the product spectrum of mutant SmuA. […] The initial velocities for the production of isomaltulose were measured by HPLC at sucrose concentrations of 50 mM, 100 mM, 150 mM, 200 mM, 300 mM, and 400 mM. The enzyme activity assay was carried out in 25 mM calcium acetate buffer pH 5.5 at 20 °C and 74.7 nM of the enzyme. […] Chromatographic conditions: XBridge amide column (particle size: 5.0 µm, inner diameter: 4.6, length: 250 mm); flow rate: 2 mL/min; injection volume: 20 µL; running buffer: 57.8 % acetonitrile, 26.1 % acetone, 16.1 % H2O. Detection via Smartline refractive index detector 2300. The enzyme activity assay was carried out in 25 mM calcium acetate buffer pH 5.5 in the presence of 1.16 M sucrose and 74.4 nM of the recombinant wild type enzyme for 16 h at 20 °C. Table 1: Composition of the isomerization products from sucrose by engineered SmuA variants.
# [2] = molecular target: Serratia plymuthica sucrose isomerase SmuA variant SmuA(Q181P/D398G/F453Y) (Serratia plymuthica, UniProt D0VX20, D383G/F438Y/Q166P/V450E); assay: as above; format: biochemical; details: 25 mM calcium acetate pH 5.5, 20 °C, 74.7 nM enzyme, 50-400 mM sucrose
# Experimental: as §1, §2, §3
# The Michaelis constant (KM), the turnover number (kcat) and the catalytic efficiency (kcat/KM) were determined for isomaltulose. […] To determine the initial velocities at these sucrose concentrations, the isomaltulose yield was analysed via HPLC and plotted against the respective sucrose concentration. […]
# Figure 1 illustrates analysis of the enzyme kinetics and the product spectrum of mutant SmuA. […] The initial velocities for the production of isomaltulose were measured by HPLC at sucrose concentrations of 50 mM, 100 mM, 150 mM, 200 mM, 300 mM, and 400 mM. […]
# [3] = other: SmuA(Y219L/T369F/D398G/F453Y)
compound,measurement,setting,value
Serratia plymuthica sucrose isomerase SmuA variant SmuA(Y219L/D398G) (Serratia plymuthica; D383G/V450E/Y204L),Km,[1]; other: SmuA(Y219L/D398G),60.16 mM
same,kcat,[1]; other: SmuA(Y219L/D398G),708.22 s⁻¹
same,kcat/Km,[1]; other: SmuA(Y219L/D398G),11770 M⁻¹ s⁻¹
Serratia plymuthica sucrose isomerase SmuA variant SmuA(Y219L) (Serratia plymuthica; V450E/Y204L),Km,[1]; other: SmuA(Y219L),86.64 mM
same,kcat,[1]; other: SmuA(Y219L),665.77 s⁻¹
same,kcat/Km,[1]; other: SmuA(Y219L),7680 M⁻¹ s⁻¹
"Serratia plymuthica sucrose isomerase SmuA, used as wildtype SmuA (UniProt D0VX20 with point mutation V465E, SEQ ID NO:3) (Serratia plymuthica; V450E)",Km,[1]; other: SmuA,55.25 mM
same,kcat,[1]; other: SmuA,965.15 s⁻¹
same,kcat/Km,[1]; other: SmuA,17470 M⁻¹ s⁻¹
OC[C@H]1O[C@@](CO)(O[C@H]2O[C@H](CO)[C@@H](O)[C@H](O)[C@H]2O)[C@@H](O)[C@@H]1O [sucrose],kcat,[2],122.88 s⁻¹
Serratia plymuthica sucrose isomerase SmuA variant SmuA(Y219L/T369F/D398G/F453Y) (Serratia plymuthica; D383G/F438Y/T354F/V450E/Y204L),Km,[1]; [3],58.16 mM
same,kcat,[1]; [3],201.07 s⁻¹
same,kcat/Km,[1]; [3],3460 M⁻¹ s⁻¹
